14 molecules from patent publication US20110144038A1 (FRESENIUS MEDICAL CARE DEUTSCHLAND G M B H, published 2011) can be followed below.

Positions of bridges follow the written chain, without caps; N, C: chain ends. No end group written: not given here.

First the molecules themselves.
B1: peptide 4.2 = 4.3 tagged with a 6 histidines tail (-His6) (peptide)
peptide: CPSGHTKACHHHHHH
modifications: disulfide 1-9
notes: Synthetic peptide; also called -his6 peptide
B2: peptide 4.10 tagged with a 6 histidines tail (-His6) (peptide)
peptide: CLPTRHMACHHHHHH
modifications: disulfide 1-9
notes: as for B1
B3: peptide 4.8 tagged with a 6 histidines tail (-His6) (peptide)
peptide: CKAASANICHHHHHH
modifications: disulfide 1-9
notes: as for B1
B4: peptide 4.6 tagged with a 6 histidines tail (-His6) (peptide)
peptide: CLGTQNKECHHHHHH
modifications: disulfide 1-9
notes: as for B1
B5: peptide 4.11 tagged with a 6 histidines tail (-His6) (peptide)
peptide: CLSAVHNMCHHHHHH
modifications: disulfide 1-9
notes: as for B1
B6: peptide 4.4 tagged with a 6 histidines tail (-His6) (peptide)
peptide: CGTHSSRICHHHHHH
modifications: disulfide 1-9
notes: as for B1
B7: peptide 4.7 = 4.12 tagged with a 6 histidines tail (-His6) (peptide)
peptide: CTPGKPHSCHHHHHH
modifications: disulfide 1-9
notes: as for B1
B8: peptide 4.10 with the residue at position 4 replaced with alanine (peptide)
peptide: CLPARHMAC
notes: also called mutated peptide (position 4)
B9: control peptide 4.10-ala (peptide)
peptide: CLPTAHMAC
notes: also called peptide 4.10 with alanine at position 5
B10: peptide 4.10 with the residue at position 6 replaced with alanine (peptide)
peptide: CLPTRAMAC
notes: also called mutated peptide (position 6)

The target of one test is T1, human CD154 expressed on the cell surface of J558L cells (murine myeloma cell line transfected with human … (human, UniProt P29965 1-261)).
T1 construct: whole, on cells; also called CD40L; CD40 ligand
T1 sequence (looked up): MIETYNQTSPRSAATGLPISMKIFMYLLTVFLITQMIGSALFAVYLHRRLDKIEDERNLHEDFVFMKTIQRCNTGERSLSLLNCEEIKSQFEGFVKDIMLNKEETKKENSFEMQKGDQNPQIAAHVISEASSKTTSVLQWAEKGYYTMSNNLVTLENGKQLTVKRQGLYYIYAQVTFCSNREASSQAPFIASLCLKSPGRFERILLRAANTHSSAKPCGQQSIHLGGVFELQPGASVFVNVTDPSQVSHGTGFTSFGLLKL
The test is described as follows: flow cytometry, -His6 peptide on J558L cells, PE anti-His6 antibody. The procedure: FIG. 2 represents the binding of the seven peptides obtained from the human CD154-binding clones and tagged with a 6 histidines tail (-His₆) to the J558L CD154⁺ cells. […] The cells were incubated with each of the -His₆-tagged peptides and then with a phycoerythrin-conjugated secondary antibody specific for the-His₆ tail. […] For each experimental condition, 10,000 events were analyzed and the values are the mean and standard deviation of 3 different experiments. All of the peptides are capable of specifically binding to the CD154 on the J558L CD154⁺ cells and are not capable of binding to the control J558 cells.
The peptides were synthesized and conjugated with biotin (-bio) or with a 6-histidine tail (-his₆) so as to enable in vitro and in vivo localization. […] Furthermore, a competition assay between the peptides and an anti-human CD154 fluorescein-conjugated antibody (Serotec) specifically recognizing the active site of CD154 was carried out. The J558L cells were incubated with the his₆-peptides for 30 minutes at room temperature and then with anti-human CD154 fluorescein-conjugated antibody for another 30 minutes at room temperature.
On to B1, for which the binding result was “binds”.

Consider B2, for which the binding result is “binds”.

As to B3, the binding result is on record as “binds”.

As to B4, the binding result was “binds”.

For B5, the binding result is “binds”.

In the case of B6, the binding result is on record as “binds”.

Take B7: the binding result was “binds”.

The target in a further test is T1, human CD154 expressed on the cell …. Briefly: binding to CD154+ J558L cells.
As for CLPSRHMAC [modified peptide 4.102], the binding result is “no binding”.

On to CLPTRWMAC [modified peptide 4.104], for which the binding result is “no binding”.

As for CIPTRHMAC [modified peptide 4.101], the binding result is given as “no binding”.

For CIPTRHMVC [modified peptide 4.103], the binding result was “no binding”.

The next test has the same target. Briefly: binding to J558L cells. The procedure: The murine myeloma cells transfected with human CD154, J558L, were incubated with each of the seven anti-CD154 peptides tagged with a 6 histidines tail (-His₆), and then with the anti-CD154 fluorescein-conjugated antibody. The ability of the peptides to compete with the anti-CD154 antibody for the binding to the CD154 molecule expressed on the surface of the J558L cells was evaluated by flow cytometry, as the reduction in the fluorescence intensity compared to the positive control represented by cells incubated with the anti-human CD154 fluorescein-conjugated antibody alone. […] The amino acid sequence of the control peptide differs from that of peptide 4.10 in that an arginine residue is replaced with an alanine residue at amino acid position 5.
The peptides were synthesized and conjugated with biotin (-bio) or with a 6-histidine tail (-his₆) so as to enable in vitro and in vivo localization. […] Furthermore, a competition assay between the peptides and an anti-human CD154 fluorescein-conjugated antibody (Serotec) specifically recognizing the active site of CD154 was carried out.
Regarding B8, the binding result was “no binding”.

For B9, the binding result is recorded as “no binding”.

For the molecule B10, the binding result was “no binding”.
